Measurements from article PMC13104032, “Prion Protein-Derived Cell-Penetrating Peptide Inhibits Type II Diabetes-Associated Islet Amyloid Polypeptide Aggregation and Cytotoxicity” (Biochemistry, 2026).
No end group written: not given here.

Target: T1, human islet amyloid polypeptide (IAPP), C-terminally amidated (human, C-terminal amide)
T1 construct: islet amyloid polypeptide (amylin), human, the 37-residue peptide hormone, residues 1-37; numbers count on: the mature protein; also called amylin
T1 chain: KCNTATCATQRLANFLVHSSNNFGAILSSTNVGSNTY
Assay: native MS
Details: both partners purified

B1: NCAM1-PrP (NCAM1(1-19)-PrP(23-28)) cell-penetrating peptide construct (peptide)
chain: MLRTKDLIWTLFFLGTAVSKKRPKP-NH2
notes: also called NPr; CPP
stoichiometry N: 1
